Legend:
K18 fragment of tau = K18 fragment of tau (UniProt P10636-8 244-372); assay: western blot of tau fragments
Experimental: (§1) T40 tau monomer or AD-tau were chemically and thermally denatured by 1:10 dilution in 8M guanidine hydrochloride and heating at 100° C. for 15 min, and non-denatured controls were diluted in Tris-buffered saline (TBS) at RT. Denatured or non-denatured tau was then diluted 1:50 in TBS and applied to 0.2 μm nitrocellulose membrane using a vacuum apparatus. For western blots, tau isoforms and fragments were diluted in SDS sample buffer, heated 10 min at 100° C., run on 12.5% SDS-PAGE gels and transferred to 0.2 μm nitrocellulose membrane. […] Infrared dye labeled secondary antibodies (LiCor) were used to detect primary antibody binding, with analysis on a LiCor scanner (LiCor).

ΔK18-P fragment of tau = ΔK18-P fragment of tau (Homo sapiens (Human), UniProt P10636 1-758); assay: western blot of tau fragments
Sequence of ΔK18-P fragment of tau (P10636 other isoform, or with tags, fused parts or gaps mutant): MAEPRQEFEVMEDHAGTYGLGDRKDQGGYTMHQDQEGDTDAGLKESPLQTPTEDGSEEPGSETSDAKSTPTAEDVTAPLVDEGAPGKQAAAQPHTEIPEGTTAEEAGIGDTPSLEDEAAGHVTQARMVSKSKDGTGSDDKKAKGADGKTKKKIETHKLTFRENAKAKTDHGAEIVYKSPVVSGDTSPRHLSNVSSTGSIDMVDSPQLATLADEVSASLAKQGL
Experimental: as §1

[1] = biological target: T1, AD-tau (Alzheimer's brain derived tau) (human, UniProt P10636-8 2-441, limits assumed); assay: sandwich ELISA, tau antigen captured by K9JA
T1 construct: Misfolded fibrillar tau from brain extract, not a single defined polypeptide; also called human AD-brain-derived pathological tau; AD tau PHF
T1 sequence (P10636 other isoform, or with tags, fused parts or gaps limits assumed): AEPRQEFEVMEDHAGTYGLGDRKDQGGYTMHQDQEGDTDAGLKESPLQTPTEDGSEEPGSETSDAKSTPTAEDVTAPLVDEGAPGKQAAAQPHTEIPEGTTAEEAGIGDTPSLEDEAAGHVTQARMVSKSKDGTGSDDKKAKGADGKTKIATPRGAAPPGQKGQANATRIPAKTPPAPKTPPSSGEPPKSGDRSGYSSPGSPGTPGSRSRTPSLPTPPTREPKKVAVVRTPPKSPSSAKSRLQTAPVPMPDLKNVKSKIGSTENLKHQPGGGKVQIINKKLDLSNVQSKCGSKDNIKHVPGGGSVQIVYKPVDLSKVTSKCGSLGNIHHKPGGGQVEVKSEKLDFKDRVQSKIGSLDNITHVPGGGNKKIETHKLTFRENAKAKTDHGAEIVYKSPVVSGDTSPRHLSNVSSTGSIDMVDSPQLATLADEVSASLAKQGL
Experimental: (§2) Blocking was performed with BlockAce solution (Abd Serotec) at 4° C. overnight. […] Plates were washed with PBST and HRP-conjugated anti-mouse (Jackson Immunoresearch) secondary antibodies were applied for 2 h at 22° C. Plates were washed and tetramethylbenzidine peroxidase substrate (KPL laboratories) was added to wells to provide a colorimetric readout, quenched with 10% phosphoric acid and then absorbance measured at 450 nm (Molecular Devices SpectraMax).
(§3) Towards the goal of generating conformation-selective tau mAbs, mice were inoculated with human AD brain-derived extracts enriched in insoluble tau (AD-tau). Hybridoma clones generated from immunized mice were screened by sandwich ELISA to simultaneously assess binding of antibodies to tau monomer, AD-tau seeded recombinant tau preformed fibrils (AD-P1 PFFs), and AD-tau. […] Clones that bound AD-tau and AD-P1 PFFs with greater apparent affinity than tau monomer were prioritized and subsequently sub-cloned by limiting dilutions to monoclonal populations.

[2] = biological target: T2, AD-P1 PFFs (AD-tau seeded recombinant tau preformed fibrils) (human, UniProt P10636 2-758); assay: sandwich ELISA, tau antigen captured by K9JA
T2 construct: Fibrils made from 36 uM T40 tau (2N4R) and 4 uM AD-tau seeds; also called T40 AD-P1 PFFs
T2 sequence (P10636 other isoform, or with tags, fused parts or gaps limits assumed): as above
Experimental: as §2, §3

[3] = biological target: T3, T40 tau monomer (full length tau protein, 2N4R isoform) (human, UniProt P10636 2-758); assay: sandwich ELISA, tau antigen captured by K9JA
T3 construct: no sentence says so outright; also called T40 monomer; human T40 tau
T3 sequence (P10636 other isoform, or with tags, fused parts or gaps limits assumed): as above
Experimental: as §2, §3

Sequence of K18 fragment of tau (P10636 561-689 limits assumed): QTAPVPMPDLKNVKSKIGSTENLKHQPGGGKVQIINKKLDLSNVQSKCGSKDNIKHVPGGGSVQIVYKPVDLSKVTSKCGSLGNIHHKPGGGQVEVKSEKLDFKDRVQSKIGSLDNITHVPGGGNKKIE

binding result (K18 fragment of tau)	binding result (ΔK18-P fragment of tau)	EC50 [1] [nM]	EC50 [2] [nM]	EC50 [3] [nM]	Binder
no binding (tested: 20 µg/mL)	no binding (tested: 20 µg/mL)	0.17	2.38	4.13	SKT82 (antibody, mouse IgG2a, V domains shown, Mouse hybridoma monoclonal antibody purified from culture medium; also called tau mAb SKT82) VH: EVQLQQSGAELVRSGASVKLSCTASGFNIKDYYMHWVKQRPEQGLEWIGWFDPENGDAEYAPKFQDKATMTADTSSNAAYLQLSSLTSEDTAVYYCNGYLYWGQGTLVTVSS VL: DVLMTQTPLSLPVSLGDQASISCRSSQNIVHNNGNTYLEWYLQKPGQSPKLLIYKVSNRFSGVPDRFSGSGSGTDFTLKISRVEAEDLGIYYCFQGSHVPHTFGGGTRLEIK
no binding (tested: 20 µg/mL)	no binding (tested: 20 µg/mL)	0.1	0.46	12	DMR7 (antibody, mouse IgG1, V domains shown, Mouse hybridoma monoclonal antibody purified from culture medium; also called tau mAb DMR7; MHC2825) VH: QVQLQQPGAELVRPGASVKLSCKASGYIFTTYWMNWVKQRPGQGLEWIAMIDPSDSETHYNQMFKDKATLTVDTSSSTAYMQLSGLTSEDSAVYYCARGEGYWGQGTTLTVSS VL: not shown

— patent US20230235034A1 (University of Pennsylvania, published 2023)
